Test results: US20220348609A1 (University of Washington, published 2022)
Where a chain is given by its changes, count along the chain named. Names and notes keep the numbering of the source. Blank lines part the entries; values can stand above or below the binder they belong to.

Key:
[1] = biological target: T1, human αvβ6 integrin on cells (A431 carcinoma cells; K562 cells stably transfected with αvβ6) (human, UniProt P06756 31-1048; P18564 22-788); experiment: row 'X(selectivity)' of the drawn table: αvβ6 over αvβ8, cell surface competition assay
T1 construct: whole, on cells; Endogenous on A431 cells, transfected on K562 cells; also called αvβ6(+) cells; K562 avb6 transfected clone A4
T1 sequence (P06756 31-1048, chain 1 of 2): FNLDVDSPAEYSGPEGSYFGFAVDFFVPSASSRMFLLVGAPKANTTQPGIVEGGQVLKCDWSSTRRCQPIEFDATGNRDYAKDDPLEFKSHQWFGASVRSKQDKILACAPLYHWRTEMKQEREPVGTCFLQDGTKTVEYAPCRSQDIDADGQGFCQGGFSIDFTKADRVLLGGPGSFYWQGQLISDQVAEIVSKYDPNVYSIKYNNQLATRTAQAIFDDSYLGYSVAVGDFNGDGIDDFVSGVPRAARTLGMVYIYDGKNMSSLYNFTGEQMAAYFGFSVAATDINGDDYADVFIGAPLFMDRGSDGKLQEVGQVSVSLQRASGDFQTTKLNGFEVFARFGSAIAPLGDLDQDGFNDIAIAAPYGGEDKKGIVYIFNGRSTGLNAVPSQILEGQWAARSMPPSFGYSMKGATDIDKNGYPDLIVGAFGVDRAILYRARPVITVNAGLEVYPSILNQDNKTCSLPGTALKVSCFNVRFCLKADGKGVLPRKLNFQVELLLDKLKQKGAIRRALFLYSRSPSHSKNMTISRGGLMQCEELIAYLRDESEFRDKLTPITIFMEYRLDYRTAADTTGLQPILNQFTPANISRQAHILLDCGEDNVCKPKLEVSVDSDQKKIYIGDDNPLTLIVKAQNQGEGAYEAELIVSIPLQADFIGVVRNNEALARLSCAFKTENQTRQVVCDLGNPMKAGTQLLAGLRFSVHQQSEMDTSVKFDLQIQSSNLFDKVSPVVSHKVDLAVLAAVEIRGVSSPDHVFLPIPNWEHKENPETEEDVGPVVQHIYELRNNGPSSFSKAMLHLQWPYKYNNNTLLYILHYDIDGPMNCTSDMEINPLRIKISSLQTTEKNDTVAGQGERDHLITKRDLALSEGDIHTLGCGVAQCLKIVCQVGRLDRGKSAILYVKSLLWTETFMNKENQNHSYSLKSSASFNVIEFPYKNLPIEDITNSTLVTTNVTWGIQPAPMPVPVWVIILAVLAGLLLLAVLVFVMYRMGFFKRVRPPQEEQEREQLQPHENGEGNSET
T1 sequence (P18564 22-788, chain 2 of 2): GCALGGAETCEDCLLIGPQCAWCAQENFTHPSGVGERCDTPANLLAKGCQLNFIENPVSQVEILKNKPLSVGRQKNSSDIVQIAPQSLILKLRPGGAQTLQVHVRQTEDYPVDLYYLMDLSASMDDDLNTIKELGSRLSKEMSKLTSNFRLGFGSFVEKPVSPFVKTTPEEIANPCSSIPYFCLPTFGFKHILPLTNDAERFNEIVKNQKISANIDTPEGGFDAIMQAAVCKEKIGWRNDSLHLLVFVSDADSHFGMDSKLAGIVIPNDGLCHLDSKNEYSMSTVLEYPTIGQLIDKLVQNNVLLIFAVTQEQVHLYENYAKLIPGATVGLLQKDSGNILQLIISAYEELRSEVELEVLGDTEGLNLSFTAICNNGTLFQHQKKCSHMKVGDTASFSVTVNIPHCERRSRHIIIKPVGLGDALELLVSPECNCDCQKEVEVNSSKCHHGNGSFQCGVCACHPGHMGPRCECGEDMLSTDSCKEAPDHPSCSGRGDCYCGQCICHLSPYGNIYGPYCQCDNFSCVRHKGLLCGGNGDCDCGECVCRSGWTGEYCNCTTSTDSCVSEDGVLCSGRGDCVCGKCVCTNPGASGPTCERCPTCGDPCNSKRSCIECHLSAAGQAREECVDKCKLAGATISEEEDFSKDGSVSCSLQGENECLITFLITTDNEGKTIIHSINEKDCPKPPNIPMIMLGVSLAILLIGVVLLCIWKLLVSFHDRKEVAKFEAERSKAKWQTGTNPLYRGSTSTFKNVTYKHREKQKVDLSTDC

[2] = biological target: T2, human αvβ6 integrin, soluble protein (biotinylated for yeast display; in solution for BLI) (human, UniProt P06756 31-992; P18564 22-707, limits assumed, biotinylated in the yeast display experiments (site not stated)); experiment: yeast surface display, flow cytometry, 50 pM biotinylated αvβ6 stained with SAPE
T2 construct: also called avb6; alpha(v) beta (6) integrin
T2 sequence (P06756 31-992 limits assumed, chain 1 of 2): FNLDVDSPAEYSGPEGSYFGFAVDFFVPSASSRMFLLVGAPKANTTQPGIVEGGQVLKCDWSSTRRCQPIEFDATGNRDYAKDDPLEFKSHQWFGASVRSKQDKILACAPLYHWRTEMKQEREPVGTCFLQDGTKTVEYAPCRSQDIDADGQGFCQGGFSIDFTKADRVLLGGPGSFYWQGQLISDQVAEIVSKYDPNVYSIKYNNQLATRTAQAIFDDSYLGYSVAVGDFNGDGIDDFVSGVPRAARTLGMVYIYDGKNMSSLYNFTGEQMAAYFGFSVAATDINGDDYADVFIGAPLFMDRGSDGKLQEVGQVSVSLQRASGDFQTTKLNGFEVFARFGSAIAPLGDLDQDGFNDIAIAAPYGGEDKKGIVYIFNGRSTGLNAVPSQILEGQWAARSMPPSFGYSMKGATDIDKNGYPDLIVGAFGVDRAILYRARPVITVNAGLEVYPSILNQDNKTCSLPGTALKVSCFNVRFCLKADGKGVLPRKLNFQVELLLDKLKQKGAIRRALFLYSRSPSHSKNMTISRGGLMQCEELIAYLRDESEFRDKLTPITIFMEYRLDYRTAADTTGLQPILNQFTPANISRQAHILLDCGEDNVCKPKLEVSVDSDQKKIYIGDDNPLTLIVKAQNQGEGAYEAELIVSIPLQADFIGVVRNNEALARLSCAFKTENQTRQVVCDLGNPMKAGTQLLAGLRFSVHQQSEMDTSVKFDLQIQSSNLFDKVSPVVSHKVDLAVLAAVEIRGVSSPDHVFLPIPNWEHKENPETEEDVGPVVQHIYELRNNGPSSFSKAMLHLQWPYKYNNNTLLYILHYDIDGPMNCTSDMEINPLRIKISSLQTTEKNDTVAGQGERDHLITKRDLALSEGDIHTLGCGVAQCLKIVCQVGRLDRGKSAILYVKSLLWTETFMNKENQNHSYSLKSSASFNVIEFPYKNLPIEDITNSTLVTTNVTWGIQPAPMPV
T2 sequence (P18564 22-707 limits assumed, chain 2 of 2): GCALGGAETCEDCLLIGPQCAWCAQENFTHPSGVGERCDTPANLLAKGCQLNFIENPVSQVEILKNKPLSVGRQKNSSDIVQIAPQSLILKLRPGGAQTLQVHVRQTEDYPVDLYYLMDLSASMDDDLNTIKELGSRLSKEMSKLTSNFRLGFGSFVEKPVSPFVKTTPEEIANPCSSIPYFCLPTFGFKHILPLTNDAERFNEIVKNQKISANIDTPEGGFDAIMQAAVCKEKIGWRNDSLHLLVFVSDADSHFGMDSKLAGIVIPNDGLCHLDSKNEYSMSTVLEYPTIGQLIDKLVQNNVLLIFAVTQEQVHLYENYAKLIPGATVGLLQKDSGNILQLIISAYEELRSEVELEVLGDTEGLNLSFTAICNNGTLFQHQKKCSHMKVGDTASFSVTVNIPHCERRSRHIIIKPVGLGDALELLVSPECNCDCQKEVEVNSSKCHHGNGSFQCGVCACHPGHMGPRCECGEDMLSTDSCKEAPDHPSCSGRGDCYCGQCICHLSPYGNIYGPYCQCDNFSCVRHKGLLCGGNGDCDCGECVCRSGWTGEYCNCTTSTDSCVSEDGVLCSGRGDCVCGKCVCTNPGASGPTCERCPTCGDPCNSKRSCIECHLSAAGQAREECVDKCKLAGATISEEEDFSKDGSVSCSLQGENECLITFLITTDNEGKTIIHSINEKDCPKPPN
Text: Yeast Display: Standard yeast surface display techniques were used to screen designs for binding and directed evolution. Genes encoding the designs were cloned into petcon2 in frame with N-term aga2 and C-term myc tag. Surface expression of Myc was detected using Anti-C Myc antibody and binding was detected by using biotinylated human αᵥβ₆ and stained with phycoerythrin conjugated streptavidin for FACS. Two different buffers were used for the binding and washing steps for yeast display: Binding Buffer 20 mM TRIS, 150 mM NaCl, pH=8.0, 1% BSA, 1 mM Ca(II) and 1 mM Mg(II), Wash Buffer: 20 mM TRIS, 150 mM NaCl, pH=8.0, 0.5% BSA, 1 mM Ca(II) and 1 mM Mg(II).

[3] = biological target: T3, human αvβ8 integrin on cells (K562 cells stably transfected with αvβ8; HeLa b8 cells in the TMLC assay) (human, UniProt P06756 31-1048; P26012 43-769); experiment: cell surface titration on K562 cells stably transfected with αvβ8; K562 cells with αvβ8; BP1 lacking A39K
T3 construct: whole, on cells; also called avb8; alpha(v) beta (8) integrin
T3 sequence (P06756 31-1048, chain 1 of 2): as the sequence (P06756 31-1048, chain 1 of 2) above
T3 sequence (P26012 43-769, chain 2 of 2): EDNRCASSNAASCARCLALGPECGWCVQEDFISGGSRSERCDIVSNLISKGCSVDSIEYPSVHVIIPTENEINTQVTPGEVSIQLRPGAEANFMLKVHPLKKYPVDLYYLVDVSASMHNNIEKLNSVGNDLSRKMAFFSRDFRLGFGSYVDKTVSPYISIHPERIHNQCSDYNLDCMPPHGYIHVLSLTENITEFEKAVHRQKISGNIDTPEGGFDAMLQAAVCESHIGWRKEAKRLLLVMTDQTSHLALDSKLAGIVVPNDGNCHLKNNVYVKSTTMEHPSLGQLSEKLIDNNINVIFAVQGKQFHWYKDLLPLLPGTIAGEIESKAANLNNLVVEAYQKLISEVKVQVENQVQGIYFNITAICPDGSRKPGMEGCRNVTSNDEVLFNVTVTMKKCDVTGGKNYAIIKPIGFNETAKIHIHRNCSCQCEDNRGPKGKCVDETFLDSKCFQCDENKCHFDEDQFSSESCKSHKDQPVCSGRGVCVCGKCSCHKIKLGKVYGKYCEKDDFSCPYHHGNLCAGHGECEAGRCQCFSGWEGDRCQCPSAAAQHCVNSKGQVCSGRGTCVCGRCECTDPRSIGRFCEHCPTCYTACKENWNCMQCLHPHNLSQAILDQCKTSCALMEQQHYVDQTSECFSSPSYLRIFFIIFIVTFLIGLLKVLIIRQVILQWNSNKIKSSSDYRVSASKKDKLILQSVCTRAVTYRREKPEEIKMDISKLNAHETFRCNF

[4] = biological target: T2, human αvβ6 integrin, soluble protein …; experiment: BLI titration of purified protein against αvβ6 (FIG. 2f,g); BLI, purified BP1 against αvβ6
Procedure: (§1) Data was collected on an Octet™ RED96 (Forte Bio) and processed using the instrument's software. His Tagged protein binders were immobilized on Ni-NTA octet sensors. The tips are then dipped into wells containing different concentrations of αᵥβ₆. Association and dissociation steps were recorded for 900 s and 1200 s respectively. An empty sensor with no loaded binding protein was included to discard any non-specific binding of αᵥβ₆ to the octet tip.

[5] = biological target: T1, human αvβ6 integrin on cells (A431 …); experiment: cell-based or functional assay
[6] = biological target: T4, αvβ1 integrin on stably transfected K562 cells (UniProt P06756 31-1048; P05556 21-798, limits assumed); experiment: cell surface binding on stably transfected K562 cells
T4 construct: whole, on cells; also called avb1; alpha(v) beta (1) integrin

[7] = biological target: T5, αvβ3 integrin on stably transfected K562 cells (UniProt P06756 31-1048; P05106 27-788, limits assumed); experiment: as above
T5 construct: whole, on cells; also called avb3; alpha(v) beta (3) integrin

[8] = biological target: T6, α8β1 integrin on stably transfected K562 cells (UniProt P53708 39-1063; P05556 21-798, limits assumed); experiment: as above
T6 construct: whole, on cells; also called a8b1; alpha 8 beta 1

[9] = biological target: T7, αiibβ3 integrin on stably transfected K562 cells (UniProt P08514 32-1039; P05106 27-788, limits assumed); experiment: as above
T7 construct: whole, on cells; also called aiibb3; alpha (iib) beta (3) integrin

[10] = biological target: T8, α5β1 integrin on stably transfected K562 cells (UniProt P08648 42-1049; P05556 21-798, limits assumed); experiment: as above
T8 construct: whole, on cells; also called a5b1; alpha 5 beta 1

[11] = biological target: T9, αvβ5 integrin on stably transfected K562 cells (UniProt P06756 31-1048; P18084 24-799, limits assumed); experiment: as above
T9 construct: whole, on cells; also called avb5; alpha(v) beta (5) integrin
T9 sequence (P06756 31-1048 limits assumed, chain 1 of 2): as the sequence (P06756 31-1048, chain 1 of 2) above
T9 sequence (P18084 24-799 limits assumed, chain 2 of 2): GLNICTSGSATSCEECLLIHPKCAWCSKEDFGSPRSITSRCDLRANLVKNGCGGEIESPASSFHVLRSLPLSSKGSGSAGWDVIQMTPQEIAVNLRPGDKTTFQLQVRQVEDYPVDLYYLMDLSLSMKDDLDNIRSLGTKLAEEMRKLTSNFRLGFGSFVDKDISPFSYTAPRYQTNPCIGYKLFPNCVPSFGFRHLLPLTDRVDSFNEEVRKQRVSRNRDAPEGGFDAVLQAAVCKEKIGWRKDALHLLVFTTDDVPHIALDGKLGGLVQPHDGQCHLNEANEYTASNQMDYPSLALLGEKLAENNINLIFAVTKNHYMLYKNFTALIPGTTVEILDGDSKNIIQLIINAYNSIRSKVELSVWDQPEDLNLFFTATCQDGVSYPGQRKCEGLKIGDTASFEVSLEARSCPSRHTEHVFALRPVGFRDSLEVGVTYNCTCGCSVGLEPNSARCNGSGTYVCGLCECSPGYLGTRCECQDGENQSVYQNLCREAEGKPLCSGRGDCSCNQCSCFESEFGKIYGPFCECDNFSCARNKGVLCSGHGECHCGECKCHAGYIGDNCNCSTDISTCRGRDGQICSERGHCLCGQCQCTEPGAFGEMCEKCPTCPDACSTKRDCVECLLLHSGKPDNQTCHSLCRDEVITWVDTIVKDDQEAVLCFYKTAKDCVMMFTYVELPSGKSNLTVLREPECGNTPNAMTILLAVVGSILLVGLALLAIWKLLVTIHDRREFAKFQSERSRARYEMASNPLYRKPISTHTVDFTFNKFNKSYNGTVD

[12] = biological target: T2, human αvβ6 integrin, soluble protein …; experiment: BLI (Octet RED96), His-tagged binder on Ni-NTA sensor, αvβ6 in solution
Procedure: as §1

[13] = biological target: T2, human αvβ6 integrin, soluble protein …; experiment: as above; remark: listed apart in the source
[14] = biological target: T1, human αvβ6 integrin on cells (A431 …); experiment: flow cytometry titration of AF488-labelled binder on A431 cells, 5 hours at 4° C., one site-specific binding fit
Text: We set out to test the ability of these binders to bind to αᵥβ₆(+) cells and block TGF-β mediated downstream signaling. We generated fluorescently labelled BP1 and BP2 by conjugating Alexafluor-488 to an engineered C-term cysteine via maleimide chemistry. The fluorescently labelled proteins were titrated against αᵥβ₆ positive human epidermoid carcinoma A431 cells.
Epidermoid cancer cells (A431) and human embryonic kidney 293T cells (HEK 293T) were purchased from American Type Culture Collection (ATCC) and grown in Dulbecco's Modified Eagle Medium (DMEM, Gibco) supplemented with 10% fetal bovine serum (FBS, Gibco) in a humidified atmosphere with 5% CO2 at 37° C. Binding assays were performed on A431 carcinoma cells. A431 cells were dissociated from culture flasks with enzyme-free cell dissociation buffer (Gibco). Varying concentrations of AG-AF488 and E13T-AF488 were incubated with 5×10^4 A431 cells in 1×TBS with 0.1% BSA, 1 mM Ca2+, and 1 mM Mg2+ (BTBS) rotating in suspension for 5 hours at 4° C. Sufficient incubation volumes were used to avoid >5% ligand depletion. After incubation, cells were washed with BTBS and analyzed by flow cytometry on an Accuri™ C6 instrument (BD Biosciences), and data were quantified using FlowJo™ software (TreeStar). Kd values were determined by fitting the data to a one site—specific binding curve using Prism™ 7 (GraphPad Software).

B2: av6_11 (designed binder)
chain: MAVVRFVFRGDLAELMLRAVKDHLKKEGPHWNITSDTSKGAELVVRGIHESDAKRIAKWVEKRFPGVHTETQQ
notes: Yeast display: Aga2 fusion with C-terminal myc tag; also purified from E. coli with C-terminal His tag
X(selectivity) [1]: 8 X

B4: av6_9 (designed binder)
chain: MAVVRFVFRGDLAELMLRAVKDHLKKEGPHWNITSDTSKGAELVVRGIHESDAKRIARTVEKLTNGKSQSLVL
notes: as for B2
X(selectivity) [1]: 3 X

B6: av6_1 (designed binder)
single chain: MAVVRFVFRGDLAELMLRAVKDHLKKEGPHWNITSTNNGAELVVRGIHESDAKRIARTVEKLTNGKSQSLVLT
binding result [2]: binds

B8: av6_12 (designed binder)
single chain: MAVVRFVFRGDLAELMLRAVKDHLKKEGPHWNITSDTSKGAELVVRGIHESDAKRIAKWARLKFPGTDTRIEV
binding result [2]: binds

B10: BP1 (av6_3_E13T) (designed binder)
chain: MAVVRFVFRGDLATLMLRAVKDHLKKEGPHWNITSTNNGAELVVRGIHESDAKRIAKWVEKRFPGVHTETQQD
notes: also called BPI; not shown: C-terminal His tag (pET29b, NdeI/XhoI)
Kd [3]: ~7.3 nM
Kd [4]: < 1 nM
IC50 of the block of αvβ6 mediated TGF-β activation, TMLC luciferase reporter co-culture assay [5]: 0.199 nM
binding result [6]: no binding (tested: up to 200 nM)
binding result [7]: no binding (tested: up to 200 nM)
binding result [8]: no binding (tested: up to 200 nM)
binding result [9]: no binding (tested: up to 200 nM)
binding result [10]: no binding (tested: up to 200 nM)
binding result [11]: no binding (tested: up to 200 nM)
Kd [12]: 0.334 nM

B11: av6_3 (designed binder)
chain: B10 chain with T14E
notes: the purified protein (BLI, cell assays) carries a C-terminal His tag; also called αv6_3; original unevolved av6_3; not shown: C-terminal His tag of the purified protein (pET29b, NdeI/XhoI)
apparent Kd (pooled screen) [13]: 1.18 nM
X(selectivity) [1]: 14 X

B14: BP1 labelled with Alexa Fluor 488 on an engineered C-terminal cysteine (designed binder)
chain: B10 chain
modifications: Alexa Fluor 488 C5 maleimide on the engineered C-terminal cysteine
notes: also called E13T-AF488; fluorescently labelled BP1; not shown: engineered C-terminal cysteine and any tag
Kd [14]: 0.167 nM

B15: BP2 labelled with Alexa Fluor 488 on an engineered C-terminal cysteine (designed binder)
chain: B10 chain with T14E, A40K, G65R
modifications: Alexa Fluor 488 C5 maleimide on the engineered C-terminal cysteine
notes: also called AG-AF488; fluorescently labelled BP2; not shown: engineered C-terminal cysteine and any tag
Kd [14]: 0.03 nM

B16: av6_3 E13TG64R (designed binder)
chain: B10 chain with G65R
notes: not shown: C-terminal His tag (pET29b, NdeI/XhoI)
Kd [12]: 0.398 nM

B18: av6_3 A39K (designed binder)
chain: B10 chain with T14E, A40K
notes: as for B16
Kd [12]: 0.411 nM

B20: av6_3 E13TM15RA39K (designed binder)
chain: B10 chain with M16R, A40K
notes: as for B16
Kd [12]: 0.397 nM

B22: av6_4 (designed binder)
single chain: MAVVRFVFRGDLAELMLRAVKDHLKKEGPHWNITSTNNGAELVVRGIHESDAKRIAKWARLKFPGTDTRIEVR
binding result [2]: binds

Second part, the binder after the results:

X(selectivity) [1]: 3 X
B1: evolved variant from the first round of design (02_E2V_T12A_E40V_S44I_T63I) (designed binder)
chain: AVVRFVFRGDLAELMLRAVKDHLKKEGPHWNITSRGNELVVRGIHESDAKRIQKEFPSVQSTIQA
notes: No substitutions were applied here; also called original crystallized variant

X(selectivity) [1]: 6 X
B3: av6_15 (designed binder)
chain: B2 chain with D36V, T37E, K39S, G40Q, A41V
notes: as for B2

binding result [2]: binds
B5: av6_13 (designed binder)
single chain: B4 chain with D36V, T37E, K39S, G40Q, A41V

binding result [2]: binds
B7: av6_5 (designed binder)
single chain: B6 single chain with T36D, N37E, N38S, A40F

binding result [2]: binds
B9: av6_16 (designed binder)
single chain: B8 single chain with D36V, T37E, K39S, G40Q, A41V

X(selectivity) [1]: 1.5 X
B12: av6_7 (designed binder)
chain: B10 chain with T14E, T36D, N37E, N38S, A40F
notes: as for B2

Kd [12]: 0.404 nM
B13: av6_3 M15RG64R (designed binder)
chain: B10 chain with T14E, M16R, G65R
notes: as for B16

Kd [12]: 0.38 nM
B17: av6_3 M15R (designed binder)
chain: B10 chain with T14E, M16R
notes: as for B16

Kd [12]: 0.42 nM
B19: av6_3 E13TM15RA39KG64R (designed binder)
chain: B10 chain with M16R, A40K, G65R
notes: as for B16

Kd [12]: 0.47 nM
B21: av6_3 G64R (designed binder)
chain: B10 chain with T14E, G65R
notes: as for B16

binding result [2]: binds
B23: av6_8 (designed binder)
single chain: B22 single chain with T36D, N37E, N38S, A40F
